Reference: article PMC7573786 (Chemical communications (Cambridge, England), 2020)

Experiments:
[1] = target: CBX1 chromodomain Y26AzF/D54AzF (UniProt P83916 20-73, Y26AzF, 4-azido-L-phenylalanine (AzF) at 26 and at 54); experiment: fluorescence polarisation
[2] = target: T1, wild type chromodomain of CBX1 (Chromobox protein 1) (UniProt P83916 20-73); experiment: fluorescence polarisation
[3] = target: CBX1 chromodomain Y26AzF/F50AzF (UniProt P83916 20-73, Y26AzF, 4-azido-L-phenylalanine (AzF) at 26 and at 50); experiment: fluorescence polarisation
[4] = target: T1, wild type chromodomain of CBX1 …; experiment: ITC

Work on ARTKQTARKSTGGKA (trimethyllysine at K9; tetramethyl rhodamine (TAMRA) at the N-terminus) [TAMRA-H3K9me3 tracer peptide 2] yielded a Kd [1] of 50.8 ± 5.7 µM, a Kd [2] of 1700 ± 200 nM and a Kd [3] of 48.9 ± 8.7 µM.

ARTKQTARKSTGGKA (trimethyllysine at K9) [H3K9me3 peptide 3 (non-TAMRA)] gave a Kd [4] of 5.3 ± 0.4 µM.
